In paper PMC7736295 (Cell Discovery, 2020):

B1: Mint1-CID (residues 338-397) [not stated] / CASK-CaMK (residues 1-337) [not stated] (parent)
chain 1: QRYSKEKRDAISLAIKDIKEAIEEVKTRTIRSPYTPDEPKEPIWVMRQDISPTRDCDDQR
chain 2: MADDDVLFEDVYELCEVIGKGPFSVVRRCINRETGQQFAVKIVDVAKFTSSPGLSTEDLKREASICHMLKHPHIVELLETYSSDGMLYMVFEFMDGADLCFEIVKRADAGFVYSEAVASHYMRQILEALRYCHDNNIIHRDVKPHCVLLASKENSAPVKLGGFGVAIQLGESGLVAGGRVGTPHFMAPEVVKREPYGKPVDVWGCGVILFILLSGCLPFYGTKERLFEGIIKGKYKMNPRQWSHISESAKDLVRRMLMLDPAERITVYEALNHPWLKERDRYAYKIHLPETVEQLRKFNARRKLKGAVLAAVSSHKFNSFYGDPPEELPDFSEDPTS

Variants of: B1
Test: ITC
Conditions: with CASK-CaMK (residues 1-337); Mint1-CID mutant titrated into CASK(1-337)

| Kd [nM] | Variant |
| --- | --- |
| 270 | chain 1 QRYSKEKRDAISLAAKDAKEAAEEVKTRTIRSPYTPDEPKEPIWVMRQDISPTRDCDDQR [chain 1 I15A I18A I22A] |
